From US20200181255A1 (Amgen, published 2020)

Columns and labels:
recombinant human IL-23 [1] = target: T1, recombinant human IL-23 (human, UniProt Q9NPF7 20-189; P29460 23-328); assay: KinExA
T1 construct: also called rhuIL-23; recombinant human (rhu) IL-23
T1 sequence 1: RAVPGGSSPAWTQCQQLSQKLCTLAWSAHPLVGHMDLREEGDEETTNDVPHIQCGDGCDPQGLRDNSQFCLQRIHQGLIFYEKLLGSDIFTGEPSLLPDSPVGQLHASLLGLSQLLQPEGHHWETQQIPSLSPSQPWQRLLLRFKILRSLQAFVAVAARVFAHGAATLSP
T1 sequence 2: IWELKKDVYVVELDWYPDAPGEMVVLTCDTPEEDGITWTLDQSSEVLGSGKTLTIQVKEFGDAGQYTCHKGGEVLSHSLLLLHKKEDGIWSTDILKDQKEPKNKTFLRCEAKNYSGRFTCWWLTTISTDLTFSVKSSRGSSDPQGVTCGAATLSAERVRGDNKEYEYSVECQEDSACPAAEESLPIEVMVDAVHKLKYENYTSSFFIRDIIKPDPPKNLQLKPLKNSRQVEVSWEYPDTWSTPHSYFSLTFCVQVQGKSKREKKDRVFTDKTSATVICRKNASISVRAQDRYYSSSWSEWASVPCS

[2] = target: T2, recombinant cynomolgous IL-23 (cynomolgous); assay: cell-based or functional assay
T2 chain 1: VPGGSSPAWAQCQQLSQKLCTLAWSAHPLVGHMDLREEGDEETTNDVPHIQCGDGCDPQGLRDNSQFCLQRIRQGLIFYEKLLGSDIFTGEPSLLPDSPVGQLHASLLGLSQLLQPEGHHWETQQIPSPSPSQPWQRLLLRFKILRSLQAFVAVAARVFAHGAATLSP
T2 chain 2: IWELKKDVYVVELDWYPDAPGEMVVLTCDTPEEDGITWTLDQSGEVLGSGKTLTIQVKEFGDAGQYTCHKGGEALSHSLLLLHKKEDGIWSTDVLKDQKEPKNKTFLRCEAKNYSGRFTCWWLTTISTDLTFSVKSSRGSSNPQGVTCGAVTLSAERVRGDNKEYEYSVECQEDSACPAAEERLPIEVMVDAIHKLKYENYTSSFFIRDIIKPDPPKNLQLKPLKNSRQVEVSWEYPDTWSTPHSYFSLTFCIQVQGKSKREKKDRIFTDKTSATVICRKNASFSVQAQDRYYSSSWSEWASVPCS

Native human IL-23 [3] = target: T3, Native human IL-23 (human, UniProt Q9NPF7 20-189; P29460 23-328); assay: cell-based or functional assay
T3 sequence 1: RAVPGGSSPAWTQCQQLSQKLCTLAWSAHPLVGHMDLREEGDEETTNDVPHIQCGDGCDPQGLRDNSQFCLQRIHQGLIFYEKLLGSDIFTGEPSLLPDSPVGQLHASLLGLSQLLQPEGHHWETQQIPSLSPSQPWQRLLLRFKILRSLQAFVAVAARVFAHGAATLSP
T3 sequence 2: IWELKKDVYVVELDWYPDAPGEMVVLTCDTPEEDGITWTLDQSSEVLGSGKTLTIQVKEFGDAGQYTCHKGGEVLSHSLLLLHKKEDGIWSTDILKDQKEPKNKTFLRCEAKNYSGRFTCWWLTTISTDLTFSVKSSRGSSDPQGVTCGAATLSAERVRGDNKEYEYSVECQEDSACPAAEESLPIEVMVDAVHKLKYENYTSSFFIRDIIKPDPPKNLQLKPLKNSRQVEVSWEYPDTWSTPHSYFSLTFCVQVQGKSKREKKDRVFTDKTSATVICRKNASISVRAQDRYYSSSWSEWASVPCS

recombinant human IL-23 [4] = target: T1, recombinant human IL-23; assay: cell-based or functional assay
[5] = target: T2, recombinant cynomolgous IL-23; assay: cell-based or functional assay
Native human IL-23 [6] = target: T3, Native human IL-23; assay: cell-based or functional assay; remark: listed apart in the source
recombinant human IL-23 [7] = target: T1, recombinant human IL-23; assay: cell-based or functional assay; remark: listed apart in the source
[8] = target: T2, recombinant cynomolgous IL-23; assay: cell-based or functional assay
recombinant human IL-23 [9] = target: T1, recombinant human IL-23; assay: cell-based or functional assay; remark: listed apart in the source
[10] = target: T2, recombinant cynomolgous IL-23; assay: cell-based or functional assay
recombinant human IL-23 [11] = target: T1, recombinant human IL-23; assay: cell-based or functional assay; remark: listed apart in the source
recombinant human IL-23 [12] = target: T1, recombinant human IL-23; assay: KinExA, derived from KD=Koff/Kon
recombinant human IL-23 [13] = target: T1, recombinant human IL-23; assay: KinExA, solution equilibrium, rhuIL-23-coated beads
Description: Normal human serum (NHS)-activated Sepharose 4 fast flow beads (Amersham Biosciences, part of GE Healthcare, Uppsala, Sweden), are pre-coated with rhuIL-23 and blocked with 1 m Tris buffer with 10 mg/mL BSA. 50 pM of IL-23 antibody is incubated with rhuIL-23 (12 points of 1:2 dilutions starting from 800 pM) at room temperature for 72 hours before it is run through the rhuIL-23-coated Sepharose beads. The amount of the bead-bound antibody was quantified by fluorescent (Cy5) labeled goat anti-human-Fc antibody (Jackson Immuno Research, West Grove, Pa.). The binding signal is proportional to the amount of free antibody at equilibrium.

kon (recombinant human IL-23 [1]): 1.17e+06 M⁻¹ s⁻¹
IC50 (pM), STAT-luciferase assay [2]: 130 pM
IC50 (pM), STAT-luciferase assay (Native human IL-23 [3]): 45 pM
IC50 (pM), STAT-luciferase assay (recombinant human IL-23 [4]): 100 pM
IC50 (pM), NK cell assay (IFNγ) [5]: 19 pM
IC50 (pM), NK cell assay (IFNγ) (Native human IL-23 [6]): 85 pM
IC50 (pM), NK cell assay (IFNγ) (recombinant human IL-23 [7]): 48 pM
IC50 (pM), IFNγ human whole blood assay [8]: 161 pM
IC50 (pM), IFNγ human whole blood assay (recombinant human IL-23 [9]): 117 pM
IC50 (pM), IL-22 human whole blood assay [10]: 113 pM
IC50 (pM), IL-22 human whole blood assay (recombinant human IL-23 [11]): 117 pM
koff (recombinant human IL-23 [12]): 4.7e-06 s⁻¹
Kd (recombinant human IL-23 [13]): 3.99 pM
B1: Antibody B (antibody, V domains shown)
VH: QVQLQESGPGLVKPSQTLSLTCTVSGGSISSGGYYWSWIRQHPGKGLEWIGHIHYSGNTYYNPSLKSRVTISVDTSKNQFSLKLSSVTAADTAVYYCAKNRGFYYGMDVWGQGTTVTVSS
VL: DIQMTQSPSSVSASVGDRVTITCRASQVISSWLAWYQQKPGKAPSLLIYAASSLQSGVPSRFSGSVSGTDFTLTISSLQPEDFATYYCQQANSFPFTFGPGTKVDFK
notes: also called VH9/VL9
